Substitutions are numbered along the chain they refer to. Blank lines part the entries; values can stand above or below the binder they belong to.
Legend:
[1] = target: T1, mouse IGFBP3 (mouse, UniProt P47878 28-292, limits assumed); assay: BLI (Octet/BLItz), antibody captured via Fc on AHC biosensor, antigen in solution
T1 construct: Bought protein; also called mIGFBP-3; murine IGFBP3
Procedure: (§1) To assess the binding affinity in more detail, affinity measurements were performed using Biomolecular Interaction Analysis performed by an Octet instrument (BLItz System), which is a Biolayer Interferometry (BLI) platform. To establish the assay, the target monoclonal antibody (30 μg/ml in 1% BSA-PBST) was immobilized via Fc on the via AHC biosensor and the interaction with the antigen human IGFBP3 (R&D, cat n° 675 B3) and mouse IGFBP3 (Creative Biomart, cat n° igfbp3 829M) at different concentration was measured.

[2] = target: T2, Recombinant human IGFBP3 (human, UniProt P17936 28-291); assay: as above
T2 construct: also called rhIGFBP3; hIGFBP-3
T2 sequence (P17936 28-291 limits assumed): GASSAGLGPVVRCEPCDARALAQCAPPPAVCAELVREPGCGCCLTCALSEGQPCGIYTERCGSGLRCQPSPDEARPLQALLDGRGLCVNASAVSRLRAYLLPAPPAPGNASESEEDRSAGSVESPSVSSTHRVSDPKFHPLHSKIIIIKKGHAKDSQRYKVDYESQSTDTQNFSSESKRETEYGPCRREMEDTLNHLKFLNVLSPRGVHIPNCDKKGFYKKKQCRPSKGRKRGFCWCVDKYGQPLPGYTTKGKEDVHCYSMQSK
Procedure: as §1

[3] = target: T2, Recombinant human IGFBP3; assay: cell-based or functional assay
[4] = target: T2, Recombinant human IGFBP3; assay: competitive ELISA: plate coated with rhIGFBP3 4 µg/ml; ecto-TMEM219 10 µg/ml added with the antibody (10 µg/ml per paragraph 174); detection anti-HisTag HRP; blocked ligand: ecto-TMEM219
Procedure: FIG. 5. IGFBP3-Ecto-TMEM219 binding in the presence of newly generated anti-IGFBP3 mAbs (n=11, YU139 antibodies) or Ecto-TMEM219 alone or monoclonal anti-IGFBP3 commercially available (LSBIO LS-C45037/clone 83.8F9, mAnti-IGFBP3) tested by using a competitive ELISA screening assay. In this assay, the microtiter plate was coated with rhlGFBP3, and labeled ecto-TMEM219 added. Each candidate monoclonal antibody was added and its ability to displace ecto-TMEM219 was assessed by measuring Absorbance after the plate was washed. Boxed are anti-IGFBP3 antibodies able to achieve the highest reduction in Ecto-TMEM219 signal (1-way ANOVA, p<0.00001).
Microplate was coated with 50 μl/well of 4 μg/ml rhlGFBP3 dissolved in PBS or PBS alone (no coating). Plate was incubated 90 minutes at 37° C. and washed with PBS (300 μl/well) and incubated with the blocking reagent (200 μl/well) 2 hours at room temperature. Samples were then diluted in the diluent solution (50 μl/well) and added to the plate as follows: diluent solution (none), ecto-TMEM 10 μg/ml, ecto-TMEM 10 μg/ml+anti-IGFBP3 mAbs 10 μg/ml, anti-IGFBP3 mAbs 10 μg/ml alone. After washing steps, plate was then incubated at room temperature for 1 hour with anti 6×His tag HRP diluted 1:2000 in Diluent solution (50 μl/well). ELISA plate was then read after adding visualization solution at ELISAreader and adsorbance was measured.

[5] = target: T2, Recombinant human IGFBP3; assay: ELISA: rhIGFBP3 2 µg/ml coated directly; scFv-Fc titrated 0.01-10 µg/ml; detection goat anti-human Fc-HRP, Abs 450 nm
Procedure: CVC microplates were coated with: i) 100 μl/well of 2 μg/ml rhIGFBP3 dissolved in PBS or PBS alone (no coating) and incubated 60 minutes at RT; ii) 100 μl/well of 2 μg/ml anti-IGFBP3 (LS-C45037 LSBio) and incubated o.n at 4° C. Plates were washed with H₂O-Tween20 (0.05%) and incubated with the blocking reagent (2% BSA-PBS-T (0.05%)). For condition ii) 100 μl/well of 2 μg/ml rhIGFBP3 was incubated o.n at 4° C. After washing the newly generated antibodies (in 2% BSA-PBS-T (0.05%)) were titrated onto the plate and incubated for 1 hour at RT. After washing steps, detection of bound antibodies was performed using a goat anti-human Fc-HRP antibody (Sigma A0170) in 2% BPS-PBS-T (0.05%) followed by washing and read out with TMB (100 μl/well). ELISA plates were then read measuring the absorbance at 450 nm.

[6] = target: T1, mouse IGFBP3; assay: BLI (Octet/BLItz)
[7] = target: T2, Recombinant human IGFBP3; assay: BLI (Octet/BLItz)

T1 sequence (P47878 28-292 limits assumed): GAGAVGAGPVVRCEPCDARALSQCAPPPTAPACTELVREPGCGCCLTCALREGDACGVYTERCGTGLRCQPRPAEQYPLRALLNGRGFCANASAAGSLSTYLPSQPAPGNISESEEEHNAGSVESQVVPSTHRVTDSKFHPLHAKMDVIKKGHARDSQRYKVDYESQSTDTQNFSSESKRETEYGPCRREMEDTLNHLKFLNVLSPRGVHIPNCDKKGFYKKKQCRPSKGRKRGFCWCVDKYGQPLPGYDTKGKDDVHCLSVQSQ

Kd [1]: 735 nM | Kd [2]: 328 nM | expression of ISCs markers EphB2 and LGR5 (RT-PCR) in IGFBP3-treated mini-guts [3]: ≥ 50%
B1: YU139-A03 (Fc fusion)
VH: QVQLVQSGGGVVQPGRSLRLSCAASGFTFSSYGIHWVRQAPGKGLEWVAIVSYDGRHKYYADSVKGRFTISRDDSKNTIYLQMDSLRAEDTAVYYCAKDSGNSGLEGIHDYWGQGTLVTVSS
VL: DVVMTQSPSSVSASVGDRVTITCRASQGISSWLAWYQQKPGKAPKLLIYAASSLQSGVPSRFSGSGSGTDFTLTISSLQPEDFGTYYCQQANSFPLTFGGGTKVEIK
notes: The format used in the Octet assay is not restated (captured via Fc)

binding result [4]: binds
B2: YU139-D03 (Fc fusion)
VH: QVQLVQSGAEVKKPGASVKVSCKASGYTFSDYGISWVRQAPGQGLEWMGWISGDNVKTTYAKKFQGRVTLTTDTSTSTAYMELRSLTSDDTAAYYCARGGIVFDYWGQGTLVTVSS
VL: ETTLTQSPGTLSLSPGERATLSCRASQSVSGNYLAWYQQKPGQPPRLLIFGASSRATGIPDRFSGSGSGTDFTLTISRLEPEDFGVYYCQQYGSSPGTFGQGTKVEIK

Kd [2]: 4000 nM | expression of ISCs markers EphB2 and LGR5 (RT-PCR) in IGFBP3-treated mini-guts [3]: ≥ 50%
B3: YU139-H03 (Fc fusion)
VH: QVQLVQSGAEVKKPGASVKVSCKASGYTFTSYGISWVRQAPGQGLEWMGWISAYNGNTNYAQKLQGRVTMTTDTSTSTAYMELRSLRSDDTAVYYCARVKWELGWAFDIWGQGTMVTVSS
VL: QAVLTQPPSVSGAPGQRVTISCTGSSSNIGAGYDVHWYQQLPGTAPKLLIYGNSNRPSGVPDRFSGSKSGTSAPLAITGLQAEDEADYYCQSYDSSLSTVFGGGTKLTVL
notes: as for B1

binding result [4]: binds
B4: YU139-D02 (Fc fusion)
VH: EVQLVESGGGVVQPGRSLRLSCAASGFTFSSYGMHWVRQAPGKGLEWVAVISYDGSNKYYADSVKGRFTISRDNSKNTLYLQMNSLRAEDTAVYYCAKDNGDYGYYYYYYMDVWGKGTTVTVSS
VL: DIQMTQSPSTLSASVGDRVTITCRASQSISRWLAWYQQKPGKAPKLLIYDASSLESGVPSRFSGSGSGTEFTLTISSLQPDDFATYYCQQSYSTPLTFGPGTKVDIK

binding result [5]: binds
B5: YU139-G01 (Fc fusion)
VH: QMQLVQSGAEVKMPGASVKVSCKASGYTFTSYGISWVRQAPGQGLEWMGWISAYNGNTYYAQKLQGRVTMTADTSTSTAYMDLRSLRSDDTAVYYCARLSYYNYAMDVWGQGTTVTVSS
VL: QSALTQPPSASGSPGQSVTISCTGTSSDVGGYNHVSWYQQHPGKAPKLMIYEVSNRPSGVPNRFSGSKSGNTASLTISGLQAEDEADYYCSSYTSSNTWVFGGGTKLTVL

Kd [6]: 60 nM | Kd [7]: 35 nM
B6: ecto-TMEM219 (receptor)
chain: THRTGLRSPDIPQDWVSFLRSFGQLTLCPRNGTVTGKWRGSHVVGLLTTLNFGDGPDRNKTRTFQATVLGSQMGLKGSSAGQLVLITARVTTERTAGTCLYFSAVPGILPSSQPPISCSEEGAGNATLSPRMGEECVSVWSHEGLVLTKLLTSEELALCGSR
notes: it is put last here only for want of better knowledge; also called EctoTMEM-His; extracellular domain of TMEM219; not shown: His tag (detected with anti 6xHis tag HRP)

binding result [5]: binds
B7: YU139-A02 (Fc fusion)
VH: QVQLVQSGAEVKKPGSSVKVSCKASGGTFSSYAISWVRQAPGQGLEWMGGIIPIFGTANYAQKFQGRVTITADESTSTAYMELSSLRSEDTAVYYCARDYYDSSGYYFDAFDIWGQGTMVTVSS
VL: QAGLTQPPSASGTPGQRVIISCSGSSSNIGTNTVSWYQHLPGTAPKLLIYNNNERPSGVPRRFSGSRSGASASLAISGLQSDDEAHYYCAAWDDNLTGLVFGGGTKLTVL

expression of ISCs markers EphB2 and LGR5 (RT-PCR) in IGFBP3-treated mini-guts [3]: ≥ 50%
B8: YU139-G03 (Fc fusion)
VH: QVQLQQSGAEVKKPGSSVKVSCKASGGIFSTYVTSWVRQAPGQGLEWMGGIIPMFDTTEYAQKLEGRVTITVDESTNTAYMELSSLRFEDTAVYYCARAGGLSHFDYWGQGTLVTVSS
VL: EIVLTQSPLSLPVTPGEPASISCRSSQSLLHSNGNNYLNWYLQKPGQSPQLLIYLSSRRASGVPDRFSGSGSGTDFTLKISRVEAEDVGVYYCMQGLQTPWTFGQGTKVETK

Kd [1]: 342 nM | Kd [2]: 1.69 nM | expression of ISCs markers EphB2 and LGR5 (RT-PCR) in IGFBP3-treated mini-guts [3]: ≥ 50%
B9: YU139-C01 (Fc fusion)
VH: QVQLVQSGAEVKKPGASVKVSCKASGYTFTSYGISWVRQAPGQGLEWMGWINTYNGNTNYAQKLQGRVTMTTDTSTTTAYMELRSLRSDDTAVYYCARDIGYSGSYYSPYYYYGMDVWGQGTTVTVSS
VL: SSELTQDPAVSVALGQTVRITCQGDGLRNYFASWYQQKPGQAPVLVIYGKNNRPSGIPDRFSGSSSGNTASLRIAGAQAEDEADYYCNSRDGSGKHLVFGGGTKLTV
notes: The format used in the Octet assay is not restated (captured via Fc); also called Yu139-CO1

binding result [4]: binds
B10: YU139-B01 (Fc fusion)
VH: QVQLQESGPGLVKPSGTLSLTCAVSGGSISSSNWWSWVRQPPGKGLEWIGEVYHSGSTNYNPSLKSRVTISVDKSKNQFSLKLSSVTAADTAVYYCARNIPLSSSWPNYYYYYGMDVWGQGTTVTVSS
VL: B9 VL with G26S, F31Y, R73T, A75N, G92S, G94A, L97W

Reference: patent publication US20250270306A1 (OSPEDALE SAN RAFFAELE S R L, published 2025)
